In patent publication US20060088847A1 (TRUSTEES OF COLUMBIA UNIVERSITY IN THE CITY OF NEW YORK, published 2006):

Target: in vitro translated 35S-labeled ARF-BP1 (1015-4374) (human, UniProt Q7Z6Z7 1015-4374, 35S-labeled (in vitro translation))
Experiment: GST pull-down with 35S-labeled in vitro translated protein

binding result: no binding
B1: GST-C-ARF, the C terminus of ARF (65-132) (other, UniProt Q8N726 65-132, looked up)
chain: GHDDGQRPSGGAAAAPRRGAQLRRPRHSHPTRARRCPGGLPGHAGGAAPGRGAAGRARCLGPSARGPG
notes: range 65-132; also called CARF-(65-132); not shown: glutathione S-transferase (GST) tag of the pGEX vector
